B1: RSVF-multi-4 (designed binder)
chain: MKLVIARVKSPKVKRLSEEDIEKIKSALKSTNKAVVTIKDENGEEIEVEVRLLTLEEALKYINDLPISNDAKKLMSNNIHKALEPGRTVVFGPEGCEERDKNRGIIKTFSTDVKLDETYFFFRVE
B2: RSVF-multi-3 (designed binder)
chain: DDLVDIFLRAFAKAAKVTRFDKNRGIIKTFSEEETEKLFKSLTEEEVEKIESALKSTNKAVVVLGDGDIEIEIDLDKLYALINDLDISNDQKKEMSNNFFEYLRKIAKK

Molecular target: RSV90 IgG (human)
Assay: SPR

RSV90 IgG (human), sequence (heavy, as listed by the source, chain 1 of 2): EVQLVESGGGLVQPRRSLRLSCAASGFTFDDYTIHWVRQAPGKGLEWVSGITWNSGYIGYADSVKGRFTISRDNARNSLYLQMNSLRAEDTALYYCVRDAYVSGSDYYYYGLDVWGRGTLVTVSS
RSV90 IgG (human), sequence (light, as listed by the source, chain 2 of 2): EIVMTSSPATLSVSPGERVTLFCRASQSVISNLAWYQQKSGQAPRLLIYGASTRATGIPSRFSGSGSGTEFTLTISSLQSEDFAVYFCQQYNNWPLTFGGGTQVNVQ

Binder	Kd [µM]
B1	> 10
B2	> 10
